To fix the notation:
B1: Sorting nexin-8 (Homo sapiens), Q9Y5X2 (parent)
chain: MTGRAMDPLPAAAVGAAAEAEADEEADPPASDLPTPQAIEPQAIVQQVPAPSRMQMPQGNPLLLSHTLQELLARDTVQVELIPEKKGLFLKHVEYEVSSQRFKSSVYRRYNDFVVFQEMLLHKFPYRMVPALPPKRMLGADREFIEARRRALKRFVNLVARHPLFSEDVVLKLFLSFSGSDVQNKLKESAQCVGDEFLNCKLATRAKDFLPADIQAQFAISRELIRNIYNSFHKLRDRAERIASRAIDNAADLLIFGKELSAIGSDTTPLPSWAALNSSTWGSLKQALKGLSVEFALLADKAAQQGKQEENDVVEKLNLFLDLLQSYKDLCERHEKGVLHKHQRALHKYSLMKRQMMSATAQNREPESVEQLESRIVEQENAIQTMELRNYFSLYCLHQETQLIHVYLPLTSHILRAFVNSQIQGHKEMSKVWNDLRPKLSCLFAGPHSTLTPPCSPPEDGLCPH

This experiment covers variants of B1. To be noted: with snx1_human SNX1, Q13596.
snx1_human SNX1, Q13596, sequence (Q13596 whole entry): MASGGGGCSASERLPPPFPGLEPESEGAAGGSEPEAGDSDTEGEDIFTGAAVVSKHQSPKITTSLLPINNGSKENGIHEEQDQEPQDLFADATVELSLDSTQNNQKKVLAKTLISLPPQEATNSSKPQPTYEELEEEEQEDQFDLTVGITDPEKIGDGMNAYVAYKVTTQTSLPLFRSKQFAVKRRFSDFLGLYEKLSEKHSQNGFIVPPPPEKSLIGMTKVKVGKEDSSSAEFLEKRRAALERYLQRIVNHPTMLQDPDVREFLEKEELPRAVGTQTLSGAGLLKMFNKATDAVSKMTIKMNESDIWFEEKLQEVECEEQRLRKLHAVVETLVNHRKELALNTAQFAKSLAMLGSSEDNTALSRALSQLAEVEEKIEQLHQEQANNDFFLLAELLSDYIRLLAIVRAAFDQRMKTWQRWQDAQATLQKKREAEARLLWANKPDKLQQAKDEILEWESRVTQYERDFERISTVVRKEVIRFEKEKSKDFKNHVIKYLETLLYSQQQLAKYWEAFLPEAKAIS
For the variant E310I, the “effect of a mutation on the interaction” value is “increasing interaction”.
